According to patent US20210155689A1 (SHANGHAI PHARMAEXPLORER, published 2021):
Where a chain is given by its changes, count along the chain named.

B1: 405B8H3 (mouse antibody purified from hybridoma) (antibody, V domains shown)
VH: QVQLQQSGAELVRPGASVTLSCKASGYTFTDYEMHWVKQTPVHGLEWIGATDPETGNSAYNQKFKGKAIMTADKSSSTAYMELRSLTSEDSAVYYCISTGWNDWGQGTSLTVSS
VL: DIKMTQSPSSMYASLGERVTITCKASQDINSYLSWFQQKPGKSPKTLIYRADRLLDGVPSRFSGSGSGQDYSLTISSLEYGDMGIYYCLQYDEFPYTFGGGTKLEIK
notes: also called mAb103-405B8H3; 405B81-13
B2: 105F1E10 (mouse antibody purified from hybridoma) (antibody, V domains shown)
VH: EVQLQQSGPELVKPGASVKMSCRASGYTFTDFKMHWMKQSHGKSLEWIGYIAPNNGGTAYNQKFRGKATLTVNESSNTAYMELRSLTSEDSAVYYCVDWDDVDYWGQGTTLTVSS
VL: B1 VL with P40S, D52N, L55V, G81E, D92V, Y96L, G100A, I106L
notes: also called mAb009-105F1E10
B3: 409B11E12 (mouse antibody purified from hybridoma) (antibody, V domains shown)
VH: B1 VH with P41T, G56S, N57Y, M70L, S98A
VL: B1 VL with I2L, D52N, G81E
notes: also called mAb104-409B11E12
B4: 409D4E10 (mouse antibody purified from hybridoma) (antibody, V domains shown)
VH: B1 VH with Y27N, G56D, S58T, M70L, A72T, S98T, T99S
VL: B1 VL with D52N, G81E, D92N
notes: also called mAb112-409D4E10
B5: 556F6B8 (mouse antibody purified from hybridoma) (antibody, V domains shown)
VH: RVQLKQSGPGLVQPSQSLSITCTVSGFSLIKYGVHWVRQSPGEGLEWLGVIWRGGITDYNAAFMSRLSITKDNSKSQVFFKMNSLQADDTAIYYCAKWDGPLAMDYWGQGTSVTVSS
VL: DIVMTQSHKFLSTSVGDRVSITCKASQDVGTTVAWYQQKPGQSPKLLIYWASTRHTGVPDRFTGSGSGTDFTLTISNVQSEDLADYFCQQYSSYPYTFGGGTKLEIK
notes: also called mAb123-556F6B8
B6: 105F1E10 mouse-human chimeric antibody (antibody, V domains shown)
VH: B2 VH
VL: B1 VL with P40S, D52N, L55V, G81E, D92V, Y96L, G100A, I106L
notes: also called mAb009-105F1E10
B7: 405B8H3 mouse-human chimeric antibody (antibody, V domains shown)
VH: B1 VH
VL: B1 VL
notes: also called mAb103-405B8H3
B8: 409D4E10 mouse-human chimeric antibody (antibody, V domains shown)
VH: B1 VH with Y27N, G56D, S58T, M70L, A72T, S98T, T99S
VL: B1 VL with D52N, G81E, D92N
notes: also called mAb112-409D4E10
B9: 409B11E12 mouse-human chimeric antibody (antibody, V domains shown)
VH: B1 VH with P41T, G56S, N57Y, M70L, S98A
VL: B1 VL with I2L, D52N, G81E
notes: also called mAb104-409B11E12
B10: 556F6B8 mouse-human chimeric antibody (antibody, V domains shown)
VH: B5 VH
VL: B5 VL
notes: also called mAb123-556F6B8; 556F8B8

Biological target: T1, human LAG-3 (full length, on the cell surface) (human, UniProt P18627 23-525)
T1 construct: Full-length human LAG-3 expressed on cells; also called HEK293-hLAG-3; HEK293 cells transfected with LAG-3 gene
T1 sequence: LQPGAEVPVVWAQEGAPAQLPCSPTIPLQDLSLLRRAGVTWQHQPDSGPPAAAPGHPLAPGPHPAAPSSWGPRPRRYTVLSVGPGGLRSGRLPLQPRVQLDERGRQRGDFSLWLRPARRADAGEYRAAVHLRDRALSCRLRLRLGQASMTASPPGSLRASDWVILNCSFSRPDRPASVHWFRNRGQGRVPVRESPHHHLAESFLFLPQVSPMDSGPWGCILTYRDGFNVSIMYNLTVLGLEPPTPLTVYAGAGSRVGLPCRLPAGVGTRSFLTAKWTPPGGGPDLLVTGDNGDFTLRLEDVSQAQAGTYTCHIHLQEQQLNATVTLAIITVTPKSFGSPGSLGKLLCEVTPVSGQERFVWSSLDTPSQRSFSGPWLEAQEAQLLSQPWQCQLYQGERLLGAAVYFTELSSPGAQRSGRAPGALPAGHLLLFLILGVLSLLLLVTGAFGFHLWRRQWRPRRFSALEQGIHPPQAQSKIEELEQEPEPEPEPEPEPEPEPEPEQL
Assay: FACS, HEK293-hLAG-3; 0.013 nM
Source text: (§1) The pIRES plasmid with the monkey-derived full-length gene was transfected into the HEK293 cell line to construct a HEK293 stable cell line containing monkey LAG-3 (herein referred to as HEK293-cLAG-3 stable cell line). The HEK293-hLAG-3 stable cell line and HEK293-cLAG-3 stable cell line were expanded in a T-75 cell culture flask to a 90% confluence. The medium was aspirated, and the cells were washed with HBSS (Hanks' Balanced Salt Solution) 1-2 times, then treated with a enzyme-free cell dissociation fluid (Versene solution: Life technology) and the cells were collected. The cells were washed with HBSS buffer for 1-2 times. After counted, the cells were diluted with HBSS to 1-2×10⁶ cells per ml, added with 1% goat serum blocking solution, incubated on ice for 20-30 minutes, and then washed with HBSS for 2 times by centrifugation. The collected cells were suspended in the FACS buffer (HBSS+1% BSA) to 2×10⁶ cells/ml, added as 100 microliters per well to a 96-well FACS reaction plate, added with 100 microliters per well of the antibody sample to be tested, incubated on ice for 1-2 hours. The plate was washed twice with the FACS buffer by centrifugation, added with 100 microliters of fluorescent (Alexa 488)-labeled secondary antibodies per well, and incubated on ice for 0.5-1.0 hours. The plate was washed 2-3 times with FACS buffer by centrifugation, added with 100 μl fixative solution (4% Paraformaldehyde) per well to suspend the cells. 5-10 minutes later, it was washed 1-2 times with FACS buffer by centrifugation. The cells were suspended with 100 microliters of FACS buffer, FACS (FACSCalibur, BD) was used for detection and the results were analyzed.

Row | Binder | Mean fluorescence intensity [MFI]
1 | B1 | 5
2 | B2 | 5
3 | B3 | 2.9
4 | B4 | 3.3
5 | B5 | 3.6

Biological target: T2, monkey LAG-3 (full length, on the cell surface) (monkey, UniProt P18627 24-525 (human entry))
T2 construct: also called HEK293-cLAG-3; monkey LAG-3 protein on the cell surface
T2 chain: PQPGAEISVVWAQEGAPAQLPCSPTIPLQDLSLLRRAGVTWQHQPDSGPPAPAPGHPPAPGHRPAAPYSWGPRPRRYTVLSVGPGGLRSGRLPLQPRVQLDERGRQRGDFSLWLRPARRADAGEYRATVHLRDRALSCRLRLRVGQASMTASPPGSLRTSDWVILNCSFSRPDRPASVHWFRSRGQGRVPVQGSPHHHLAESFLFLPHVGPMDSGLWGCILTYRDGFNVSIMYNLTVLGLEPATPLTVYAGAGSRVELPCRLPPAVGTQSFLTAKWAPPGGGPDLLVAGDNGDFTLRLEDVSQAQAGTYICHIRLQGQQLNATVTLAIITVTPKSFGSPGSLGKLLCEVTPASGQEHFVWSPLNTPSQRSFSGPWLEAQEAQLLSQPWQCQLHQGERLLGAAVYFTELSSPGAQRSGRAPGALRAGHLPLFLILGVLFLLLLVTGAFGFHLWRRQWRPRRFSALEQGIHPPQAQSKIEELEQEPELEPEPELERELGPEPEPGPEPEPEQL
Assay: FACS, HEK293-cLAG-3; 0.000 nM
Source text: as §1

Row | Binder | Mean fluorescence intensity [MFI]
6 | B1 | 3.9
7 | B2 | 3.9
8 | B3 | 3
9 | B4 | 3
10 | B5 | 3.4

Biological target: T2, monkey LAG-3 (full length, on the cell …)
Assay: FACS, HEK293-cLAG-3; 1.600 nM
Source text: as §1

Row | Binder | Mean fluorescence intensity [MFI]
11 | B1 | 23
12 | B2 | 15.4
13 | B3 | 24.4
14 | B4 | 36.1
15 | B5 | 24.2

Biological target: T1, human LAG-3 (full length, on the cell …)
Assay: FACS, HEK293-hLAG-3; 40.000 nM
Source text: as §1

Row | Binder | Mean fluorescence intensity [MFI]
16 | B1 | 321
17 | B2 | 315
18 | B3 | 148
19 | B4 | 153
20 | B5 | 81.8

Biological target: T3, LAG-3-hFc protein (human LAG-3 extracellular region with hFc tag) (human, UniProt P18627 23-450)
T3 construct: also called hLAG-3-hFc; LAG-3 protein; not shown: human IgG Fc fragment (hFc) of the pCpC vector
T3 sequence: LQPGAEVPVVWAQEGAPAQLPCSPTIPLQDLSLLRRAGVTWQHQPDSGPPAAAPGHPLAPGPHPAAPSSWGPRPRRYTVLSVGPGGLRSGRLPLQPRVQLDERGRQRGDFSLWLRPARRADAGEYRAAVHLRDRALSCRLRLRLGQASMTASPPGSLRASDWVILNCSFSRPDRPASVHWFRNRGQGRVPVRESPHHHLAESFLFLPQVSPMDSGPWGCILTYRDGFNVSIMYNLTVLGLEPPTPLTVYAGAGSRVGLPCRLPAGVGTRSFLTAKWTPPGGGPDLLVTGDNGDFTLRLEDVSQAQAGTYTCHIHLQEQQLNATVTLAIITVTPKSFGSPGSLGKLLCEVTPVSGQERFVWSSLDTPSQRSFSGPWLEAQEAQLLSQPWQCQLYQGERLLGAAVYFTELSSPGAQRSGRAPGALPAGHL
Assay: FACS, inhibition of LAG-3-hFc binding to MHC II on Raji cells, antibody 0.823 nM
Procedure: The FACS reaction plate incubating the Raji cells was centrifuged to discard the supernatant. The above mixture was added as 100 μl per well to Raji cells and incubated on ice for 1-2 hours. The plate was washed twice with blocking solution (PBS, 2% fetal bovine serum) by centrifugation, added with 100 microliters of fluorescent (Alexa 488)-labeled secondary antibodies per well, and incubated on ice for 1.0 hours. The plate was washed 2-3 times by centrifugation with blocking solution (PBS, 2% fetal bovine serum), added with 100 microliters of PBS per well to suspend cells, and detected using FACS (FACS Calibur, BD) and the results were analyzed. Wherein, the IgG control was murine IgG, and the data in the table is the inhibition rate (%).

Row | Binder | Inhibition rate (%)
21 | B6 | -0.3
22 | B7 | 17.5
23 | B8 | 20.9
24 | B9 | 24.4
25 | B10 | 29.7
